The assay addresses T1, GST-ZW10 (full length GST-tagged human ZW10) (human, UniProt O43264 1-779).
T1 sequence (looked up): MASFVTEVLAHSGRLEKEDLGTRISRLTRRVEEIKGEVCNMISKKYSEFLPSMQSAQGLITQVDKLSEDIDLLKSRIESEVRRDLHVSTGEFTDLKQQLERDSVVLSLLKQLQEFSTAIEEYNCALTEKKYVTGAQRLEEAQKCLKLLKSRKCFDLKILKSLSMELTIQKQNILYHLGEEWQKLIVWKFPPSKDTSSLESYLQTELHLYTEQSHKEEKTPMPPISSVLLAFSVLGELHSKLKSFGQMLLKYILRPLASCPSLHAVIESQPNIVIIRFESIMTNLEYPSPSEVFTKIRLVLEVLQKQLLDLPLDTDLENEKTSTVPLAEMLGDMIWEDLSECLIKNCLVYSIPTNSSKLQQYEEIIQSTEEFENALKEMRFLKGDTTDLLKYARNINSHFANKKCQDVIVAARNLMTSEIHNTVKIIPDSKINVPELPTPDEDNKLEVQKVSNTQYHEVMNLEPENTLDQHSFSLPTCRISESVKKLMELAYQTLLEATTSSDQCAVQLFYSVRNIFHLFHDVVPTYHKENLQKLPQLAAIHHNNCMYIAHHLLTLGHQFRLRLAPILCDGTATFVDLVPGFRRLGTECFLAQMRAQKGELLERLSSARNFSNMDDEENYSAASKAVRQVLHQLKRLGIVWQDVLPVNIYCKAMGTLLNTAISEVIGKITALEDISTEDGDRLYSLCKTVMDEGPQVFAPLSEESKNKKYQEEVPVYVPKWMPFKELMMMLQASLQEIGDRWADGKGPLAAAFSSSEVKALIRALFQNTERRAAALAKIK
Kind of assay: pull-down.

These results are taken from article PMC5839794 (The Journal of Cell Biology, 2018).

B1: His-tagged human Chmp4c (natural protein, UniProt Q96CF2 1-233, looked up)
chain: MSKLGKFFKGGGSSKSRAAPSPQEALVRLRETEEMLGKKQEYLENRIQREIALAKKHGTQNKRAALQALKRKKRFEKQLTQIDGTLSTIEFQREALENSHTNTEVLRNMGFAAKAMKSVHENMDLNKIDDLMQEITEQQDIAQEISEAFSQRVGFGDDFDEDELMAELEELEQEELNKKMTNIRLPNVPSSSLPAQPNRKPGMSSTARRSRAASSQRAEEEDDDIKQLAAWAT
B1: the binding result is listed as “binds”.
